Experiments:
[1] = target: FLAG-tagged B14 F130K (vaccinia virus strain Western Reserve) (UniProt P24772); assay: co-IP
[2] = target: FLAG-tagged B14 Y35E (vaccinia virus strain Western Reserve), P24772; assay: co-IP; conditions: remark: other sources report otherwise
SEC-MALS = target: the molecule itself; assay: SEC-MALS

“N-terminally HA-tagged IκB kinase β (IKKβ) (from UniProt O14920 1-756) (enzyme)” gave a co-precipitated IKKβ relative to wild-type B14 (% of wild-type B14) [1] of 1.

B1: N-terminally HA-tagged IκB kinase β (IKKβ), O14920 1-756 (enzyme)
chain: MSWSPSLTTQTCGAWEMKERLGTGGFGNVIRWHNQETGEQIAIKQCRQELSPRNRERWCLEIQIMRRLTHPNVVAARDVPEGMQNLAPNDLPLLAMEYCQGGDLRKYLNQFENCCGLREGAILTLLSDIASALRYLHENRIIHRDLKPENIVLQQGEQRLIHKIIDLGYAKELDQGSLCTSFVGTLQYLAPELLEQQKYTVTVDYWSFGTLAFECITGFRPFLPNWQPVQWHSKVRQKSEVDIVVSEDLNGTVKFSSSLPYPNNLNSVLAERLEKWLQLMLMWHPRQRGTDPTYGPNGCFKALDDILNLKLVHILNMVTGTIHTYPVTEDESLQSLKARIQQDTGIPEEDQELLQEAGLALIPDKPATQCISDGKLNEGHTLDMDLVFLFDNSKITYETQISPRPQPESVSCILQEPKRNLAFFQLRKVWGQVWHSIQTLKEDCNRLQQGQRAAMMNLLRNNSCLSKMKNSMASMSQQLKAKLDFFKTSIQIDLEKYSEQTEFGITSDKLLLAWREMEQAVELCGRENEVKLLVERMMALQTDIVDLQRSPMGRKQGGTLDDLEEQARELYRRLREKPRDQRTEGDSQEMVRLLLQAIQSFEKKVRVIYTQLSKTVVCKQKALELLPKVEEVVSLMNEDEKTVVRLQEKRQKELWNLLKIACSKVRGPVSGSPDSMNASRLSQPGQLMSQPSTASNSLPEPAKKSEELVAEAHNLCTLLENAIQDTVREQDQSFTALDWSWLQTEEEEHSCLEQAS
In the case of B1, the co-precipitated IKKβ relative to wild-type B14 (fold of wild-type B14) [2] is reported as 0.5.

B2: N-terminally His6-tagged wild-type B14 (vaccinia virus strain Western Reserve) (natural protein)
chain: MTANFSTHVFSPQHCGCDRLTSIDDVRQCLTEYIYWSSYAYRNRQCAGQLYSTLLSFRDDAELVFIDIRELVKNMPWDDVKDCAEIIRCYIPDEQKTIREISAIIGLCAYAATYWGGEDHPTSNSLNALFVMLEMLNYVDYNIIFRRMN
With B2 the Kd (SEC-MALS) was 20.6 ± 0.9 µM and the “stoichiometry N” value (SEC-MALS) was 2.
